Measurements reported in article PMC2646141.

B1: wild type APOBEC3G prey [human] / wild type APOBEC3G bait [human] (parent)
chain 1: MKPHFRNTVERMYRDTFSYNFYNRPILSRRNTVWLCYEVKTKGPSRPPLDAKIFRGQVYSELKYHPEMRFFHWFSKWRKLHRDQEYEVTWYISWSPCTKCTRDMATFLAEDPKVTLTIFVARLYYFWDPDYQEALRSLCQKRDGPRATMKIMNYDEFQHCWSKFVYSQRELFEPWNNLPKYYILLHIMLGEILRHSMDPPTFTFNFNNEPWVRGRHETYLCYEVERMHNDTWVLLNQRRGFLCNQAPHKHGFLEGRHAELCFLDVIPFWKLDLDQDYRVTCFTSWSPCFSCAQEMAKFISKNKHVSLCIFTARIYDDQGRCQEGLRTLAEAGAKISIMTYSEFKHCWDTFVDHQGCPFQPWDGLDEHSQDLSGRLRAILQNQEN
chain 2: B1 chain 1

Variants of: B1
Assay: yeast two-hybrid (β-galactosidase activity)
Details: with wild type APOBEC3G (A3G) bait [human]; parent: 0.5; read off a plot

In order of rising response:
1. chain 1 W127Y  0.031 OD540
2. chain 1 W127A  0.038 OD540
3. chain 1 Y124L  0.042 OD540
4. chain 1 Y124F  0.05 OD540
5. chain 1 Y124A  0.062 OD540
6. chain 1 Y315F  0.34 OD540
7. chain 1 Y315L  0.5 OD540
8. chain 1 Y315A  0.59 OD540
